These results are taken from the supplement of paper PMC9112550, “Optimization of the antimicrobial peptide Bac7 by deep mutational scanning” (BMC Biology, 2022).

The data set concerns Escherichia coli TOP10. In words: shrunken log2 fold change of peptide-encoding DNA abundance (4.5 h post-induction vs induction); higher = less antimicrobial activity (less host growth inhibition). The conditions noted are these: time post-induction: 4.5 h; library: site-saturation at positions 5, 18, 19, 20.
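Also: peptides expressed intracellularly from a pBAD plasmid library in pooled LB shake-flask culture, induced with 0.3% L-arabinose, DNA abundance read by NGS, three biological replicates, DESeq2 with apeglm shrinkage.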

Regarding RRIRERPPRLPRPRPRPNAEPRP, the “shrunken log2 fold change” value was 0.103.

Consider RRIRCRPPRLPRPRPRPQLDPRP, for which the “shrunken log2 fold change” value was -0.142.

Consider RRIRQRPPRLPRPRPRPLFPPRP, for which the “shrunken log2 fold change” value came to 0.0501.

In the case of RRIRERPPRLPRPRPRPYSSPRP, the “shrunken log2 fold change” value was -0.0288.

On to RRIRTRPPRLPRPRPRPHDYPRP, for which the “shrunken log2 fold change” value is -0.196.

For RRIRDRPPRLPRPRPRPPYYPRP, the “shrunken log2 fold change” value is -0.474.

As for RRIRPRPPRLPRPRPRPKKPPRP, the “shrunken log2 fold change” value was 0.0432.

In the case of RRIRWRPPRLPRPRPRPRIPPRP, the “shrunken log2 fold change” value amounted to 0.0219.

For RRIRSRPPRLPRPRPRPDLKPRP, the “shrunken log2 fold change” value was -0.00372.

As to RRIRPRPPRLPRPRPRPSHWPRP, the “shrunken log2 fold change” value stood at 0.959.

For RRIRARPPRLPRPRPRPCFAPRP, the “shrunken log2 fold change” value came to 0.61.

RRIRCRPPRLPRPRPRPAQFPRP: the “shrunken log2 fold change” value is 0.0313.

Turning to RRIRERPPRLPRPRPRPNTKPRP, the “shrunken log2 fold change” value came out at 0.0156.

On to RRIRDRPPRLPRPRPRPTLTPRP, for which the “shrunken log2 fold change” value was 0.717.

In the case of RRIRARPPRLPRPRPRPNHAPRP, the “shrunken log2 fold change” value was 0.209.

With RRIRTRPPRLPRPRPRPWMKPRP, the “shrunken log2 fold change” value stood at 0.0159.

RRIRGRPPRLPRPRPRPPIYPRP: the “shrunken log2 fold change” value was 0.132.

In the case of RRIRWRPPRLPRPRPRPWWIPRP, the “shrunken log2 fold change” value amounted to 0.109.

Turning to RRIRIRPPRLPRPRPRPDDYPRP, the “shrunken log2 fold change” value was found to be 0.07.

Consider RRIRPRPPRLPRPRPRPHHDPRP, for which the “shrunken log2 fold change” value was -0.266.

Turning to RRIRIRPPRLPRPRPRPFLSPRP, the “shrunken log2 fold change” value is -0.282.

Regarding RRIRERPPRLPRPRPRPYFSPRP, the “shrunken log2 fold change” value is -0.247.

For the sequence RRIRQRPPRLPRPRPRPKVKPRP, the “shrunken log2 fold change” value was -0.223.

Take RRIRERPPRLPRPRPRPCYLPRP: the “shrunken log2 fold change” value is -1.07.

As for RRIRKRPPRLPRPRPRPAAQPRP, the “shrunken log2 fold change” value came to 0.814.

With RRIRPRPPRLPRPRPRPHRWPRP, the “shrunken log2 fold change” value stood at 0.25.

As to RRIRPRPPRLPRPRPRPEAIPRP, the “shrunken log2 fold change” value was found to be 0.102.

As to RRIRFRPPRLPRPRPRPWPRPRP, the “shrunken log2 fold change” value is 0.626.

Regarding RRIRMRPPRLPRPRPRPTDKPRP, the “shrunken log2 fold change” value was 0.851.

Take RRIRARPPRLPRPRPRPERIPRP: the “shrunken log2 fold change” value was 0.155.

Turning to RRIRNRPPRLPRPRPRPEILPRP, the “shrunken log2 fold change” value was -0.0178.

As for RRIRDRPPRLPRPRPRPIKQPRP, the “shrunken log2 fold change” value was -0.00204.

With RRIRSRPPRLPRPRPRPVKDPRP, the “shrunken log2 fold change” value was -0.315.

On to RRIRNRPPRLPRPRPRPDVYPRP, for which the “shrunken log2 fold change” value was -0.0277.

Consider RRIRCRPPRLPRPRPRPMLRPRP, for which the “shrunken log2 fold change” value is 0.184.

RRIRFRPPRLPRPRPRPDQPPRP: the “shrunken log2 fold change” value was found to be 0.57.

RRIRQRPPRLPRPRPRPNPTPRP: the “shrunken log2 fold change” value worked out at 0.00513.

On to RRIRKRPPRLPRPRPRPRWGPRP, for which the “shrunken log2 fold change” value was found to be 0.358.

For the sequence RRIRMRPPRLPRPRPRPHTEPRP, the “shrunken log2 fold change” value amounted to 0.191.

Consider RRIRIRPPRLPRPRPRPYWHPRP, for which the “shrunken log2 fold change” value was -0.718.

For RRIRCRPPRLPRPRPRPSNSPRP, the “shrunken log2 fold change” value was -0.644.

Turning to RRIRDRPPRLPRPRPRPHFTPRP, the “shrunken log2 fold change” value is -0.307.

As for RRIRSRPPRLPRPRPRPLQMPRP, the “shrunken log2 fold change” value is 0.24.

RRIRERPPRLPRPRPRPEIYPRP: the “shrunken log2 fold change” value was determined as 0.0872.

For the sequence RRIRLRPPRLPRPRPRPCESPRP, the “shrunken log2 fold change” value came to 0.0102.

RRIRERPPRLPRPRPRPYYQPRP: the “shrunken log2 fold change” value was determined as 0.0241.

Turning to RRIRARPPRLPRPRPRPQLQPRP, the “shrunken log2 fold change” value was found to be 0.426.

As for RRIRPRPPRLPRPRPRPLFVPRP, the “shrunken log2 fold change” value is -0.176.

As to RRIRFRPPRLPRPRPRPNTAPRP, the “shrunken log2 fold change” value is -0.986.

Turning to RRIRCRPPRLPRPRPRPSMFPRP, the “shrunken log2 fold change” value is -0.651.

In the case of RRIRYRPPRLPRPRPRPTETPRP, the “shrunken log2 fold change” value was -0.00564.

Take RRIRWRPPRLPRPRPRPCWSPRP: the “shrunken log2 fold change” value is -0.106.

Take RRIRTRPPRLPRPRPRPIFYPRP: the “shrunken log2 fold change” value is -0.315.

Turning to RRIRARPPRLPRPRPRPFCAPRP, the “shrunken log2 fold change” value was 0.394.

Turning to RRIRIRPPRLPRPRPRPDRNPRP, the “shrunken log2 fold change” value is -0.913.

Turning to RRIRMRPPRLPRPRPRPYGQPRP, the “shrunken log2 fold change” value stood at 0.0303.

In the case of RRIRNRPPRLPRPRPRPIQPPRP, the “shrunken log2 fold change” value was -0.213.

Turning to RRIRDRPPRLPRPRPRPAHIPRP, the “shrunken log2 fold change” value was -0.0312.

Turning to RRIRMRPPRLPRPRPRPFVCPRP, the “shrunken log2 fold change” value is 0.137.

On to RRIRQRPPRLPRPRPRPWQYPRP, for which the “shrunken log2 fold change” value was -0.366.

As to RRIRHRPPRLPRPRPRPIVMPRP, the “shrunken log2 fold change” value is -0.012.

As for RRIRYRPPRLPRPRPRPICYPRP, the “shrunken log2 fold change” value is -0.691.

Regarding RRIRQRPPRLPRPRPRPGQYPRP, the “shrunken log2 fold change” value was -0.156.
